One block for each binder: values may come before it.
Tests used:
[1] = target: T1, Heat shock factor protein 1 (HSF1), purified recombinant (human), Q00613; test: SEC + native gel or EMSA; trimer fraction of purified HSF1 from the same SEC, then Blue native PAGE and western blot; settings: remark: other sources report otherwise
T1 chain: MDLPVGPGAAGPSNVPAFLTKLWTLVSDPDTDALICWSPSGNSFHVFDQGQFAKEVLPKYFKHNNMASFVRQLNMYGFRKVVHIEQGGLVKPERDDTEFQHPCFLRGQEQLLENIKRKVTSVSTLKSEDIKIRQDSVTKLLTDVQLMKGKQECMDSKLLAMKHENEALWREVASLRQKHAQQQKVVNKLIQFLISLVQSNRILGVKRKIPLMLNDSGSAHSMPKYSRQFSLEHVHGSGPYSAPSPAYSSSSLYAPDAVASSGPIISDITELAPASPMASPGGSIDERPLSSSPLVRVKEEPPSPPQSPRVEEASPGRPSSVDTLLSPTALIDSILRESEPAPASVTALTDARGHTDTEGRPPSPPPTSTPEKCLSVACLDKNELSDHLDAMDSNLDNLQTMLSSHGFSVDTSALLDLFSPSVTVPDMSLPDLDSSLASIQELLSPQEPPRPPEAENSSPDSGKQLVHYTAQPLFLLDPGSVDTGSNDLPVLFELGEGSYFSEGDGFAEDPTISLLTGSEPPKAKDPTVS

[2] = target: T1, Heat shock factor protein 1 (HSF1), …; test: native gel or EMSA; Blue native PAGE and western blot of purified HSF1 monomer (5 μM) after mild heat (38°C, 0-600 s; or 37°C, 5 min) with or without BSA as crowder (1-50 mg/ml); settings: remark: other sources report otherwise
[3] = target: T2, HSF1, endogenous in H1299 cells (human (endogenous in H1299)), Q00613; test: cross-linking; 2 mM DSBU added to the lysate of H1299 cells for 30 minutes, SDS-PAGE, blot with anti-HSF1 c-5; cells treated with AUY-922 (0-200 nM, 2 h) after mTOR inhibitors BEZ-235 or rapamycin (100 nM, 8 h); settings: remark: other sources report otherwise
T2 chain: T1 chain

[4] = target: T3, GFP-HSF1 (human), Q00613; test: native gel or EMSA; high resolution clear native electrophoresis (HR CNE) of lysates of H1299 cells with fluorescent HSF1 fusion, fluorescence scan; cells treated with sorbitol, 42°C heat shock, bortezomib or AUY-922; settings: remark: other sources report otherwise
T3 chain: T1 chain

[5] = target: T4, mCherry-HSF1 (human), Q00613; test: as above; settings: remark: other sources report otherwise
T4 chain: T1 chain

[6] = target: HSF1 monomer (SEC-purified) (human (Homo sapiens), UniProt Q00613 1-529); test: fluorescence polarization; after heat shock (+HS); binding enhanced; FP: 30 nM DNA, 150 mM NaCl, 50 mM HEPES pH 7.2, 1 mM DTT, 0.05% Tween-20, 25 C; EMSA: 200 nM HSF1, 100 nM DNA, 25 mM HEPES pH 7.4, 150 mM NaCl, 10% glycerol, 3; settings: protein: recombinant; tags: N-terminal His6-TEV, cleaved by TEV before assay; chain copies: 3; label: 5' FAM on printed strand; described as double-stranded

B2: HSF1, endogenous in H1299 cells, Q00613 1-529 (natural protein)
chain: T1 chain
- stoichiometry N [3]: 3

B3: GFP-HSF1, Q00613 1-529 (natural protein)
chain: T1 chain
- stoichiometry N [4]: 3

B5: FAM-HSE (dsDNA)
DNA 1: CCCCTTCCCGAATATTCCCCC
DNA 2: GGGGGAATATTCGGGAAGGGG
- binding result [6]: binds

The remaining lines, values ahead:

- stoichiometry N [1]: 3
- stoichiometry N [2]: 3
B1: Heat shock factor protein 1 (HSF1), purified recombinant, Q00613-1 1-529 (natural protein)
chain: T1 chain

- stoichiometry N [5]: 3
B4: mCherry-HSF1, Q00613-1 1-529 (natural protein)
chain: T1 chain

Source: paper PMC11534217, “Direct activation of HSF1 by macromolecular crowding and misfolded proteins”
